Source: patent US20060263334A1

Legend:
[1] = molecular target: scTCR-AGD-CD4TM-hζ (human) (UniProt P01730); test: flow cytometry, 293H cells transfected with scTCR-AGD-CD4TM-hζ; bar marked **. Reference bars: 293H 1.1, Control vector 1.4
scTCR-CD4TM-hζ (human) = scTCR-CD4TM-hζ (human) (UniProt P01730); test: flow cytometry, 293H cells transfected with scTCR-CD4TM-hζ. Reference bars: 293H 1.1, Control vector 1.4
[2] = molecular target: MA scTCR (single chain Vα23.1Jα14.3-linker-Vβ8.3DβJβ1.2-Cβ2 fused through a thrombin-site linker to the murine CD3 ξ chain), displayed on transfected RBL or BWZ cells (human; mouse); test: flow cytometry, 293H cells transfected with scTCR; bar marked **. Reference bars: 293H 1.1, Control vector 1.4

anti-TCR βF1 antibody
Fold increase in MFI [1]: 6.5 fold | Fold increase in MFI (scTCR-CD4TM-hζ (human)): 2.1 fold | Fold increase in MFI [2]: 4.4 fold
